Data: patent US20220001020A1

Biological target: CD123 (human) (UniProt P26951)
Experiment: cell-based or functional assay

Chain of UniProt P26951 (P26951 19-378): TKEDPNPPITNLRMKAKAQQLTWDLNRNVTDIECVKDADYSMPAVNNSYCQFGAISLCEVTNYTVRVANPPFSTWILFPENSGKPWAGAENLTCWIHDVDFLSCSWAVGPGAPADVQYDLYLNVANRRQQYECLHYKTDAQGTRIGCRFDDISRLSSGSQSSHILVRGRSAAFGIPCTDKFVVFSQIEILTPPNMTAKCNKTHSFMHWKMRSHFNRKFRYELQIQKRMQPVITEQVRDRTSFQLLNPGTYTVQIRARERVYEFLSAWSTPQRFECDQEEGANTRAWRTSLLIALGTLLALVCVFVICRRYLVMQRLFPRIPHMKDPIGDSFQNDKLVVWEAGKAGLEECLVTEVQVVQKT

For “diphtheria toxin-human interleukin-3 conjugate (DT-IL3)”, the IC50, cell viability assay was 4.8 nM.
